# Measured values reported in patent US20190070251A1.
# Key:
# [1] = molecular target: GPR54 G-Protein coupled receptor (cloned human GPR54) (human) (UniProt Q969F8); experiment: cell-based or functional assay
# [2] = molecular target: human δ opioid receptor (human) (UniProt P41143); experiment: Kd of the radioligand, previously determined under these assay conditions; membranes of CHO-K1 cells with recombinant human δ opioid receptor (biphalin series)
# [3] = molecular target: human δ opioid receptor (human) (UniProt P41143); experiment: Kd of the radioligand, previously determined under these assay conditions; membranes of CHO-K1 cells with recombinant human δ opioid receptor (OGF series)
# Sequence of human δ opioid receptor (human) (P41143 whole entry, stated change not applied): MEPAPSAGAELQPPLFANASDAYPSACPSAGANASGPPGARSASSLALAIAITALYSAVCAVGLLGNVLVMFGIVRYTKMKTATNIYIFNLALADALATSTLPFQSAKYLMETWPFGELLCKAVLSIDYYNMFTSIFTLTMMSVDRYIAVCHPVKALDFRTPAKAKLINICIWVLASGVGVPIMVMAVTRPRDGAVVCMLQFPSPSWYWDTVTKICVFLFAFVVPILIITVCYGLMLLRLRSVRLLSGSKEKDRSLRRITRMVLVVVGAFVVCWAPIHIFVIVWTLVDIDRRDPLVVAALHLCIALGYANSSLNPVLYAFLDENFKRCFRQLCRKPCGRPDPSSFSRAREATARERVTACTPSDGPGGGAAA
substance,measurement,setting,value
mono-[mPEG-SBC-30K]-[Kisspeptin-10] (peptide),EC50 (nM) of agonist activation at GPR54; time of release 2 h,[1],200 nM
[3H] DPDPE (peptide),Kd,[2],3.9 nM
same,Kd,[3],3 nM
Kisspeptin-10 (peptide),EC50 (nM) of agonist activation at GPR54 (FLIPR calcium flux),[1],10 nM
same,Fold change compared to metastin,[1],1 fold
